Laboratory results as given in US20220251236A1 (Boehringer Ingelheim, published 2022).

B1: DLL3#1/CD3#1 (bispecific antibody, human IgG1, kappa, lambda, L234A L235A)
chain 1: EIVLTQSPGTLSLSPGERATLSCRASQSVSSNFLVWYQQKPGQAPRPLIYGASTRASGIPDRFSGSGSGADFTLTISRLEPEDFALYYCQQYGDSPYTFGQGTTLEIKRTVAAPSVFIFPPSDEQLKSGTASVVCLLNNFYPREAKVQWKVDNALQSGNSQESVTEQDSKDSTYSLSSTLTLSKADYEKHKVYACEVTHQGLSSPVTKSFNRGECGGGGSEGKSSGSGSESKSTEGKSSGSGSESKSTGGGGSQVQLVQSGAEVKKPGASVKVSCKASGNTFTNYYMHWVRQAPGPGLEWMGIIDPSVGSKSYAQKFLGRVTIARDTSTSTVFLDLYSLRSEDTAVYFCARAGKRFGESYFDYWGQGTLVTVSSASTKGPSVFPLAPSSKSTSGGTAALGCLVKDYFPEPVTVSWNSGALTSGVHTFPAVLQSSGLYSLSSVVTVPSSSLGTQTYICNVNHKPSNTKVDKRVEPKSCDKTHTCPPCPAPEAAGGPSVFLFPPKPKDTLMISRTPEVTCVVVDVSHEDPEVKFNWYVDGVEVHNAKTKPREEQYNSTYRVVSVLTVLHQDWLNGKEYKCKVSNKALPAPIEKTISKAKGQPREPQVYTLPPSREEMTKNQVSLWCLVKGFYPSDIAVEWESNGQPENNYKTTPPVLDSDGSFFLYSKLTVDKSRWQQGNVFSCSVMHEALHNHYTQKSLSLSPG
chain 2: EAVVTQEPSLTVSPGGTVTLTCRSSTGAVTTSNYANWVQEKPGQLPRGLIGGTNKRAPWVPARFSGSLLGGKAALTLSGAQPEDEAEYFCALWYSNLWVFGGGTKLTVLGQPKAAPSVTLFPPSSEELQANKATLVCLISDFYPGAVKVAWKADGSPVNTGVETTTPSKQSNNKYAASSYLSLTPEQWKSHRSYSCQVTHEGSTVEKTVAPAECSGGGGSEGKSSGSGSESKSTEGKSSGSGSESKSTGGGGSEVQLVESGGGLVQPGGSLKLSCAASGFTFNTYAMNWVRQAPGKGLEWVARIRSKYNNYATYYADSVKDRFTISRDDSKNTAYLQMNNLKTEDTAVYYCVRHGNFGNSYVSWFAYWGQGTLVTVSAASTKGPSVFPLAPSSKSTSGGTAALGCLVKDYFPEPVTVSWNSGALTSGVHTFPAVLQSSGLYSLSSVVTVPSSSLGTQTYICNVNHKPSNTKVDKRVEPKSCDKTHTCPPCPAPEAAGGPSVFLFPPKPKDTLMISRTPEVTCVVVDVSHEDPEVKFNWYVDGVEVHNAKTKPREEQYNSTYRVVSVLTVLHQDWLNGKEYKCKVSNKALPAPIEKTISKAKGQPREPQVYTLPPSREEMTKNQVSLSCAVKGFYPSDIAVEWESNGQPENNYKTTPPVLDSDGSFFLVSKLTVDKSRWQQGNVFSCSVMHEALHNRFTQKSLSLSPG
B2: DLL3#7/CD3#1 (bispecific antibody, human IgG1, kappa, lambda, L234A L235A)
chain 1: EIVLTQSPDTLSLSPGERATLSCRASQSVNSNFLAWYQQKPGQTPRLLIFGTSSRATGIPDRFSGSGSGTDFTLTISRLEPEDFAVYYCQQYGSSPWTFGQGTKVEIRRTVAAPSVFIFPPSDEQLKSGTASVVCLLNNFYPREAKVQWKVDNALQSGNSQESVTEQDSKDSTYSLSSTLTLSKADYEKHKVYACEVTHQGLSSPVTKSFNRGECGGGGSEGKSSGSGSESKSTEGKSSGSGSESKSTGGGGSQVQLVESGGGVVQPGRSLRLSCAASGFTFSSYGMFWVRQAPGKGLEWVAVIWLDGDDEDYVDSVKGRFTISRDDSKNTLYLQMNSLRVDDTAIYYCARVLDYWGQGTLVTVSSASTKGPSVFPLAPSSKSTSGGTAALGCLVKDYFPEPVTVSWNSGALTSGVHTFPAVLQSSGLYSLSSVVTVPSSSLGTQTYICNVNHKPSNTKVDKRVEPKSCDKTHTCPPCPAPEAAGGPSVFLFPPKPKDTLMISRTPEVTCVVVDVSHEDPEVKFNWYVDGVEVHNAKTKPREEQYNSTYRVVSVLTVLHQDWLNGKEYKCKVSNKALPAPIEKTISKAKGQPREPQVYTLPPSREEMTKNQVSLWCLVKGFYPSDIAVEWESNGQPENNYKTTPPVLDSDGSFFLYSKLTVDKSRWQQGNVFSCSVMHEALHNHYTQKSLSLSPG
chain 2: B1 chain 2

Target: T1, Human CD3 E+G HuFc-6xHis (human)
T1 construct: also called hu CD3εγ-Fc
Assay: SPR (ProteOn XPR36), HuCD3E_HuCD3G-Fc amine-coupled, bispecific as analyte, Example 4B
Description: The binding affinity of purified DLL3/CD3 bispecific constructs for recombinant human DLL3-ECD and Fc-fusion protein of human CD3 εγ subunits was determined by Surface Plasmon Resonance (SPR), using a ProteOn XPR36 instrument (Bio-Rad).
For binding kinetic determination to CD3, HuCD3E_HuCD3G-Fc (dissolved in pH 4.5 acetate) was immobilized directly onto the sensor surface through amine coupling for 360 sec at a flowrate of 30 μl/min vertically. The baseline was stabilized by injecting PBS-T-EDTA for 60 sec at a flowrate of 30 μl/min horizontally. The analytes (all anti-DLL3/CD3 molecules) were injected horizontally over the captured antibody for 600 sec at a flowrate of 30 μl/min and a dissociation for 1800 sec.

T1 sequence (chain, as listed by the source limits assumed): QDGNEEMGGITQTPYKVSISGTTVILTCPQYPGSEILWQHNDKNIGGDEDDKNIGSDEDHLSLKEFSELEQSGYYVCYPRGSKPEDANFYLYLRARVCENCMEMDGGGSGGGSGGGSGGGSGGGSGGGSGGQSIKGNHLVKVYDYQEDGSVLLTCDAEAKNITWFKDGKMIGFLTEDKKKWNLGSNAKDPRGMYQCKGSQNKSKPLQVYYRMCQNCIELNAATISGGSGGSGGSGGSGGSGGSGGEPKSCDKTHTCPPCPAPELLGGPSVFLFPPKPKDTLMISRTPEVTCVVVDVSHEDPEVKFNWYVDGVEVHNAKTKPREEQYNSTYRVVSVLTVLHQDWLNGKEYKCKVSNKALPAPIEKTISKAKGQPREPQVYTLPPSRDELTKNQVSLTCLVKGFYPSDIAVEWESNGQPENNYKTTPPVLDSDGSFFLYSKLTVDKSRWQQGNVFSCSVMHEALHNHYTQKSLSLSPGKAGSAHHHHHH

Binder | Kd
B1 | 2 nM
B2 | 1 nM
